Data as given in the DeepSol protein solubility set.

Test: soluble on expression in E. coli; label from the status in PepcDB or PDB records

Sequence	soluble on expression in E. coli
MSLSLIKVGLVGIGAQMQENLLPSLLQMQDIRIVAACDSDLERARRVHRFISDIPVLDNVPAMLNQVPLDAVVMAGPPQLHFEMGLLAMSKGVNVFVEKPPCATLEELETLIDAARRSDVVSGVGMNFKFARPVRQLREMTQVDEFGETLHIQLNHYANKPRAPLWGLDSTLRSFLLAQAIHTIDLAITFGDGELRRVQSSVQRHDDALIVRADMAFSSGATASLLAGTSFPYFEFDMKLVSSSSTLVELDNLWNITLHEPEHATRPTGAAKRWRGAWQPGPLDSGYERSGYHGELHQFFQAIREHRRFEADFASLLPTYRVIEEICSADAVAQGLQNAHSRIRTGIESLSEGHHHHHH	soluble
MSEKTMRVQDYPLATRCPEHILTPTGKPLTDITLEKVLSGEVGPQDVRISRQTLEYQAQIAEQMQRHAVARNFRRAAELIAIPDERILAIYNALRPFRSSQAELLAIADELEHTWHATVNAAFVRESAEVYQQRHKLRKGS	soluble
MSNGNTDPVFDFEDALDQTEMAQLAVDELKKIPEVNTLFAERWLPAPFNLDDLAKLPEGTLGHVYAIEMKARGFDPYFYKKVPVVDDISYLKMLWRSTHDIYHVVAGFDTDGIGEIGLQAFVLAQTPIPISVMLVSFGMVMTSLYQPAKFQDLMAEIARGYSLGSHTPRKLIAQKWDQFWDVPVIEIRECLGMNTVKQRERALEHHHHHH	not soluble
MGSDKIHHHHHHMKVCVGIIGLGRIGHRFGISPQGDPLSHSEGYAQIPNVTVVLGVDPDPEACKNFLQRFSQAQVYSSLKDVPDGLHLEVVSVCSPTHLHAQGVIAALAWRPRVILCEKPLAVNVAEAEIMLAACSAQGCILITNYSRRWTPMLQALKNLTNQDDGLGTPIGACLRYNGGLLHNGTHWIDMLLALFGSVSCTYRLEKLSVAQDDAAESIALSWNSGLTAYLIAVRGTGCSIGEGELWGTGGMLRYSAGGGQVTWQTAQPSQWSGFQELDQAKIICEAGLKGHILGAVTEAVQLAKIGGQPTCSGADGVLALQVVEMARNNKFLIK	not soluble
TTGNEPPVTQIVDKHRIALALGGGAARGWAHIGVLRALDEAGVKIGMIAGTSIGALVGGCYLAGKLDELEEFARSLTMRRIAGLLDLTIGGGGLFGGMRLTKRMQEHLEGLRVENLEHPFIAVATELRTGHEVWIHQGDLVTALRSSYALPGIFEPVQCNGRTLIDGALVNPVPVSVCRAYEQALVVAVNLNYDLFGRSA	not soluble
MNIQNIRTLLDTVAVPNTARTLGGEKAVRSVEQRSDGIHIALHFGFPVAHIASETADRIQEILMPETGDTHIHLSMDTEIGTHKVQPGVTTIKGVKNIIAVASGKGGVGKSTTTANLAAAMARMGARVGVLDADLYGPSQPTMLGVDDRKPDQKNQKLIPVESSDGIQVMSIGFLVDTDQAVVWRGPMVSQALQQLMFQSEWDEVDYLFIDLPPGTGDIQLTLSQRIPVTGSVIVTTPQDIALIDARKAVDMFRKVNIPILGVLENMSVHICTNCGHSEALFGTDGGKDFAARLNVPLLGQLPLSLPVREAMDGGTPAQLFDEHPAIARIYTDAAFQIALSIADKGKDFSSRFPKIVVE	not soluble
MLTIEPPSATFPASGGSSTHTITSVNESRMAFKVKSSNNEHYRVRPVYGFVEARGKMKFEIIRLEGPVKDDKIMLQYAEVPADETDAQAPFKAGAQQGDVTILLKTN	not soluble
LENDRTTFRIRNLDSGEIIWSGMGAVYPVYSPSFDHAADAFAFAFSSPADPPEIHLLRDAETKSSINSHLDGVSPYPAEIVEWKAKDGEDLYGILRLIDPKNPLIVYIHGGPTSFSYASFLDRTSIYLGYGFNVFAPNYRGSVGKGRRYAELNVGDLGGKDFDDVISGIEFLKNTGKIATDRIYITGGSYGGYMSALAVMKTDIFRASVSLFGISDWVSFHGVSNLHLWDRLHMDADPWAFKKYDEYSPIRIMHEPKTPTLLMHGIKDPYVPIGQYYEFYRFLKEKNCEVRMIVFPREGHGFTEKEHIRRQYMETIRFMKDH	not soluble
MAHHHHHHMQCSSLKTGCLKLLSQLPEGLQQAGRTAVSAHQRSYCPYSNFAVGAALLHDDGKVTSGCNYETCVYKGTCAEACAIVKANMDGYRTAQAVAIYGRSVLPTAAAAAADATVPPCGFCRQLLAEVADLSGNMNDFLVVLVTFDQEHARLFRLSELLPQPFGPSSIGMDVAALATGEHSRCPGTF	not soluble
SLVSVRCAECKGKLLCGRSKCPLLEKYRFLKEIKIDSRILDPSPPSIFVGRVGYPKVYAGPLVSINADPVYADSPWLWKSIEEVIRLRTSMLRVSRRFRVEDVREEKKELTEMQEMTAAIKPVDVEAEIRKISRKAEFDDVMQPMGYSAIAESIKLAENPKIPDKVEKVYYDDMKAYEALSYLYNHGFSTYYLQKIFSAGILGERKSRKLVPTRWSITAVHSIVGEAIKREIAAYKPIDKTLLFNYEHFGNHFEVILSPENYFFQLVEIWQRKSFWSPKRTGLGLTART	soluble
MSLNEMEKRPEDTRVVVGMSGGVDSSVAALLLKEQGYDVIGIFMKNWDDTDENGFCTATEDYEDVIRVCNQIGIPYYAVNFEKQYYEKVFQYFLDEYKAGRTPNPDVLCNKEIKFKAFLEHALSLGADYLATGHYARVDRSGGKVRMLRGIDENKDQTYFLNQLTEDTLSKVMFPIGELQKSRVREIAKEAELATATKKDSTGICFIGERNFKTFLSQYLPAQPGDMMTMDGEVKGRHDGLMYYTIGQRHGLGIGGSGEPWFAVGKDLEKNILYVDQGFHNPLLYSDKITATNISWVRSDIMKGEEISCTAKFRYRQEDHKVTVRMTGEGEAEVIFDEQVRAVTPGQAVVFYDGEECLGGGTIDDVYKDGTKLWYVEGHHHHHH	soluble
PTAGADTIEYCVTHSESKALIGGKLDDPAATQQVIDAMPELISIALPYDSAPQCQYQFNALIADAVPSEERPQHYDDKLMSLVYTSGTSGLPKGAMLTYGAFSWSVQQLINHIGIQANDRLFSYLPLAHITER	not soluble
MGSDKIHHHHHHMKFPLLLALLVGGASALHLSSETSDSKSPLMDENLPRDAEISGPEGEECPPGEELMPLEGEKEEGSGSEGVPGDEGAVSGQDVTDVDLQCPKEEDTTSLMGDSGCKTCRYLLVRRAECFDKAQSVCRRCYRGTLASIHSFSVNFGIQSAVRGINQGQVWIGGRIKGWGRCKRFRWVDGSSWNFAYWAAGQPCPGGGRCVTLCTQGGHWRLSHCVKRRPFICSY	not soluble
MSLELRPLHPLDGLLKFAGLARSTFYYQQKVLLVDDKYAGLKDLIQATFYEHKGRYGYRRITAALRRAGHLVNHKTVQKLMGQLGLKSLIRVKKYRSYKGETGKAAPNLLKRDFKAQYLNQKWATDVTEFKVGGQKLYLSPIMDLYSGEIISYAIARRPLYSMVDEMLEGAFKRLGPHEKPILHSDQGWQYRMPIYQRLLNENSIAASMSRKGNCYDNAAIESFFSTLKSEFFYLNKFNDLDELQAGIEEYIEYYNHSRIKLKLNGLSPVEYRMQAAKAAEGHHHHHH	not soluble
DKTVKRAVPFKIIKMIKELDLSFEPQLELARDIFLFSFYTRGMSFIDMAHLKKSNLQNGILTYSRKKTGQRLTILWEELMQEIVDKYKDDTSEYLLPILRYCDINDRKQYKLRAKQIGRGLNKIGLRLELKAPLTFYVARHSWASIAQDRKVSTDIIREGLGHDNEKTTHIYLASISTSQIDRANQIILRGL	soluble
DMPRPTGLAADIRWTAYGVPHIRAKDERGLGYGIGYAYARDNACLLAEEIVTARGERARYFGSEGKSSAELDNLPSDIFYAWLNQPEALQAFWQAQTPAVRQLLEGYAAGFNRFLREADGKTTSCLGQPWLRAIATDDLLRLTRRLLVEGGVGQFADALVAAAPPGAEKV	soluble
MGSDKIHHHHHHMDQEKTPLLDALKGYVEENVIPFHVPGHKQGRGNPELRKYIGSKVLKMDVNGMKELDYIGNPSGVIAEAQHLCAEAFGAEQAYFLVNGTSSGVQAMIMSACNPGNEIIIPRNAHKSTIGAIILSGAIPVYVQPQVNKVLGIATGVSAESIQKAIEEHPQAKAVFIINPSYYGIHSDLKSIVEISHQANMTVLADEAHGAHLYFHPEFSLNAIEAGADMSAVSLHKTGGAMTQSSVLLHQGDRISVDRVKQVLQLSYTSSASYILMLSIDVARKQLATRGQLLLNKTLALARQARQELNDIEDIYAFGKELIGSPGCADFDETKLGIHVRKLGLTGYQIERILRERYKIQIEFSDIYNALAIVSLGDRRENLRKLVAAFREIADERETKDASKWFNIPFCPEMIVTPRDAFYSPKRIVPLELSSGEISGEMIMAYPPGIPVICMGERITQEIIEYIQLLQVEGCELQGATDAGINHIKVLGSALPQASVSKSVSPSRSAYQEIPVYLSP	not soluble
MGHHHHHHSHMSGTEEAILGGRDSHPAAGGGSVLCFGQCQYTAEEYQAIQKALRQRLGPEYISSRMAGGGQKVCYIEGHRVINLANEMFGYNGWAHSITQQNVDFVDLNNGKFYVGVCAFVRVQLKDGSYHEDVGYGVSEGLKSKALSLEKARKEAVTDGLKRALRLPLLGVSGRILYSLFSVHSVMCAGGLPTPTASAQTAPSSPCSSAVLRYAQEFWECTWKLYSGQRLPEITK	not soluble
MSLDIHEGNLMPAKRKLTMRHIRQMLRLAGSGTSSREIAVMLGIARSTVQDNLKRAAMAGLSWALASGLTDDVLEAKLFVHPGVKRGQRLRQEPDWGPLSIELKKPGVTLLILWEEYRSAHPDGYGYSRFCELFRGFEKRLSPTMRQEHIAGDKVFVDYSGKKVPIVDRKTGEIREAELFLGVLGASSYCTRGRSVHLGELLRRAWIFQHLGNREGHHHHHH	soluble
MNIEIKDTLISEEQLQEKVKELALQIERDFEGEEIVVIAVLKGSFVFAADLIRHIKNDVTIDFISASSYGNQTETTGKVKLLKDIDVNITGKNVIVVEDIIDSGLTLHFLKDHFFMHKPKALKFCTLLDKPERRKVDLTAEYVGFQIPDEFIVGYGIDCAEKYRNLPFIASVVTEESYNLKSR	soluble
MIVLIDNYDSFTYNLYQLLGEYEEEIVVVRNDQITIEQLEEMNPKGIVLSPGPGKPEEAGICIEVIRHFYKNVPILGICLGHQAIISAFGGEIVRAERIKHGKTSRAKHNGTSIFSYVTQPLTAMRYHSLVAAQTSLPQCFDILATAMDDGEIMAVRHNYYPLFGLQFHPESIATEEGGKLIRAFLGEVKEEERV	not soluble
MFVTQQLKLMGTVIDIQIESDKACQQLSRVIDLLYTYKNRFSANDSNSELMAINQAAGVKPVSVHSDLFNLIQIGKAHSLSTPSNLNIAIGPLVQAWRIGFEDARVPSHNLISQQLALTDPRQVLIDDKKQTVFLQQVGMALDLGALAKGYITDKIMAYLIEDGIDSALINLGGNVRVHGPNPKSPDKTFRIGIQKPDAKRGQHLGVIKVNNHSVVTSGIYERQFTSKGKQYHHILDRQTGYPIETDMLSLTIMAPSSFYCDIWTTRLFGLDSSMIITLLNTFDNIEGLLVTRKHHVLMSNGLRHYFQPYYH	not soluble
MMIKVGAAINGTDSPKAMKREHDNDDGDRTGRHKRPKTDGFTEAIQQGKFEVRLLVSSKSAGAIIGKGGENIKRLRAEFNAHVQVPDSNTPERVCTVTADEKTVLNILKDVLPRLEDNFSERDPCEVRMLVHQSHAGALIGRNGSKIKELREKCSARLKIFTGCAPGSTDRVLITSGEQKNVLGIIEEVMKELKEIPIKGSATPYLPAFNYDPSNISDYGGFPGNMPAGGPPNNRGPAPQRGGQGPPGGPRSYGGAITQGGGQRSFEAGDFQQFRGGPGPVPGYAMSAPGYPPQQGQFGAPNNAGYGYGPGGGGPVTTAQVTIPSDLGGTIIGRGGERIARIRQESGAQITLEQSNGQPERIITIKGTEQQIHSAQYLLQQCVRNSTQGRERFGGSV	not soluble
